Experiment: soluble on expression in E. coli; label from the status in PepcDB or PDB records

| Sequence | soluble on expression in E. coli |
| --- | --- |
| MTLSKRLALLGAQSAITLAKPRGLGSSLGLLDRRPFPYRQFSELTKANGRRAFLVDTLALVRSLEAQGVPSKQAEAITSAITEVLNDSLENVSESFVSKAEMQKIEMIQDSNLSKFKSEVKSSQEHHFTVLQRETEKLRGDIEKMRSELRYEIDKVTAGQRLDLNLERGRIRDELANQNTETTNLTNKLDREIHALRAQLEASKYEVIKYCIGTLVSISAVGLAVLRIMI | not soluble |
| MTLTRKTLFLLTAAFGTHSLQTASADAVVKAEKLHASANRSYKVAGKRYTPKNQVAEFTQTGNASWYGGRFHGRKTSGGERYDMNAFTAAHKTLPIPSYVRVTNTKNGKSVIVRVNDRGPFHGNRIIDVSKAAAQKLGFVNQGTAHVKIEQIVPGQSAPVAENKDIFIDLKSFGTEHEAQAYLNQAAQNFAVSSSGTNLSVEKRRYEYVVKMGPFTSQERAAEAEAQARGMVRAVLTAG | not soluble |
| MTMDKSELVQKAKLAEQAERYDDMAAAMKAVTEQGHELSNEERNLLSVAYKNVVGARRSSWRVISSIEQKTERNEKKQQMGKEYREKIEAELQDICNDVLELLDKYLIPNATQPESKVFYLKMKGDYFRYLSEVASGDNKQTTVSNSQQAYQEAFEISKKEMQPTHPIRLGLALNFSVFYYEILNSPEKACSLAKTAFDEAIAELDTLNEESYKDSTLIMQLLRDNLTLWTSENQGDEGENLYFQ | soluble |
| MTMHREPGGERYYYTWAWFEGPDDAAWRVTGHHTDSGEQYRLDWNLAERSLCVTDSLGRTRCHWWDAQGLVTAYRDEAGQMTTFRWSDEERLLLGMTDAQGGKWRYVYDRLGHLTETHDPLGRVEQTQWHPVWHQPETEVDAAGAAWRYEYDERGNLQAVSDPLHQRTVYGYDRHGQVVRITDARGGDKYLQWNEDGQLMRHTDCSGSQTAWFYDERTRLERVTDAESNSTRYSYDGNGHLTEVMFADGRTERYQPDAAGRLVKYTSPAGQITRWQRDGQGRVRRQTDATGRRTAYEYDAYGRLTTLTNENGESYRFRYDVLDRLTEQTDPGGSRRAYGYNALNAVTAVIYGGERGGEIRHGLERDAAGRLTAKTTPETRTEYRYDAADRLLEIRRRRHDAAEGGEPEVIRFSYDSAGNLLSEETAQGVLQHRYDVQGNRTETQMPDGRTLRYLYYGSGHLQQINLGRDVISEFTRDHLHREVQRSQGRLDTRRMYDRTGRLTRKPTCKGMRGVVPETFIDREYAYSGQDELLKKRHSRQGVTDYFYDTTGRITACRNEAYLDSWQYDAAANLLDRRQGETAQAGAGSVVPFNRITSYRGLHYRYDEYGRVVEKRGRNGTQHYRWDAEHRLTEVAVIRGSTVRRYGYVYDAPGRRVEKHELDAEGKPYNRTTFLWDGMRLAQECRLGRSSSLYIYSDQGSHEPLARVDRAAPGEADEVLYYHTDVNGAPEEMTDGRGNIVWEAGYQVWGNLTHEKETRPVQQNLRFQGQYLDRETGLHYNLYRFYDPDIGKFISGDPISIRGGINLYQYAPNPIKWIDPLGLYNGEGQRELGKYHVFHEHNLDITEYGLSDAEHFSRGNQAIYERMKNDPAFRREMQTKYPGVVEHVQPSSGGKFSTESPPGLTWHHENKPGVLSLVDRLDHKTYLEHHHHHH | not soluble |
| MTMIKKIETELLAAKATLSEISGRFKEFSDTQARLSADGDLLGLARLNKEHTGLEDSLLAADDTVRALESRLSVLRQAEYRPQFDKAHKTHLGAVQAETKAAEKLLAAIDAVFSAATDMQNLSDEVAATYHAARDLHNRAGLDHELRWPAPDGQIPIKISDRMNSLRDELVRTIRLYEDRLPQSQSLEGLRIIEQQQEELVRNSGRGFR | soluble |
| MTMKMSGTEIQKHFKTLKGTIAITSIEDGDGSHVVWTFDFEKVHKDIDDSHSIIDETVKYLKELDEVLLKFHE | soluble |
| MTNAKPENALAAIGIARKELDADRYILISSDLVYTPSNDPKAEDSRTEPITDEGRIFLTAESLMNQERDAIFRTGFIIGLCSVNLYTNVLNMVRSGMRLSLSKSTIRNFIRNADLSSFIMRSIERNISGVYNVASDASTAYDFAKRLCDMAGLKCTLEDSGEDLGNYTMDTSRSLKTFGMRPMSVFEGYTISGSFDLR | not soluble |
| MTNGFPILRLPSKPLRSILQTMKFVELVSISFTSKVAKRHVKALNMKVSYINMFLSRLTIRLVVNFNGTLPLNFRIPDRNVSEPRKLNKKLNYMKVKEGPIFEETEVFEWKPSGIRFKEIANHVLEIFHKSEFSTLMISHDYDYKTMLQELKDFKIRKLCISSDRIQNSELRRNLLEKYSRQFRELALDYHSLKPQEFHLIVSISYNNCYLYKVPMKLEDLLVSNIFLMCIDKPCPLKQLCLFLKHWINGSNDRLEYLEMNLPANSTKTQFISIALNGIDYQLASTDKEWESANNGLIKTTVVKTGGFDIRQNDGTIATVTVDETFQKLRMFVWK | not soluble |
| MTNKKKEITIHSSAAEYLTYVASTGRNSDSFEMRYEDENIWLTQKMMATLYDVSVSAINQHLKRIFEDDELVEESVIKKYLITASDGKSYSTKHYNLQAIIAVGFKVNNDRAVRFRKWAGQIVKDYTIQGWTMDKERLKKGHMFTDEYFERQLENIREIRLSERKFYQKVTDLYATAFDYDKDAKTTRQFFKMVQNKMHWAVHRHTAAELIVERANAEKEHMGLTTWESAPDGKIVKADVTVAKNYLSEKEMSYLQRIVSLYLDYAELQAERRIPMSMEDWAKRLDGFLEFNGNELLMGLGKVSAEQAKLHAETEFEKYRIVQDRLFMSDYDKYLIELEHQADQSDV | not soluble |
| MTNTTMQPNRLRIALQKKGRLSQDCAILLKQCGVKINWNEQRLIAYAENLPIEILRVRDDDIPGLIFDGVVDLGIIGENVLEEEELGRRAANETVTYKKLRQLDFGDCRLSLAVDRDCHYENVKDLANRRIATSYPHLLKRYMNENGVSFKSCLLNGSVEVAPSAGIAYAICDLVSSGATLEANGLKEVDVIYRSKACLIQRAEPLESTKQALVDKLLTRIQGVQQAAESKYIMLHAPKEKLEKITALLPGVENPTILPLASDTTRVAMHVVSQENLFWETMEQLKEAGASSILVLPIEKMMELEHHHHHH | soluble |
| MTPDPLYMRRAIELAQNAEGFTSPNPLVGAVLVAHGRIIGEGYHHCAGMPHAEVIAINSVRDRALLRESTLYVSLEPCSHYGKTPPCAELILREGIPHVVVAMLDPFPSVSGRGIKMLRDAGVSVQVGLLAEEAEELNRHFLTAQRQHRPYVTLKWAESSDGFIDALRDDASTPPVRLSTPLTTRFVHHRRMIHDAILVGFRTALLDNPSLTVRHWYGRNPLRVVTDRHLALPRHLTLFDGSVPTLVFTEKEQPSGYPSAVSFVRIDPSRPPVEQMLAELHARGIQSLLVEGGACILRSFIDSGLYDDVRIEHSTIILNEGVRAPHLPSY | not soluble |
| MTPIEAKFARLSTDHAPDQEVRQGNAGLDGLLRGDTLPGTPVDFSHGDVNTSAFAPTPGSLQEFVQGVERGGEQAYTEYRGAADLRLRVAAHLAEFTGAPVDGANELIITPGTQGALFLAIASSVTAGDKVAIVRPDYFANRKLVEFLGDEIVPVDMRHLERDSGAGLDLDQLEAAFKAGVRTFLFSNPNNPAGVVYSPEEIAQIADLARHYDATVIVDQLYSRLLYTGTRYTHLRALPQAPANVITIMGPSKTESLSGYRLGVAFGAAHLIDRMEKLQAIVSLRAPGYCQAVLRTWFQEPAGWMNERIAQHQAIRDDLIRVLRAVPGLAVRAPEAGSYLFPRLPRLAVGLHDFVRILRTQAGVTVTPGTEFSPHADDSIRLNFSQNHAAAVQAIERTAQLIERYRA | not soluble |
| MTPPIAADYTAQAVSTDTIGYLHSTESGAGVDGPGMRFVFFVSGCQFRCLYCHNPDTWKLHNGRQVSVEQALSEVAPYARFLKFAGGVTISGGEPLMQHEFVGELFHEIKQRFGLHTALDTQGFLHERVSDAWFDDVDLVMLDIKHSDPEKYQALTGQPLQPTLDFALRLKRLRKKMWIRYVLVPGLTDGDADIEKLADFAASLGDVVERVEVLPFHQLGKDKWAQLGMEYQLNDTPIPTAEQAAHARALFASRGLKVTLEHHHHHH | soluble |
| MTPSKTTLVERCYKYIMSNEKNWSPYTVINRKSWVKNYIEPFFKDTKLIDINPVLIQTFINTTFNNCTFSSSKIRYRFISSVLKEAYRLREINENPCDFVKLPLEHHHHHH | not soluble |
| MTQKRTLLKYGILSLALAAPLSACAFDSLTVIGDSLSDTGNNGRWTWDSGQNKLYDEQLAERYGLELSPSSNGGSNYAAGGATATPELNPQDNTADQVRQWLAKTGGKADHNGLYIHWVGGNDLAAAIAQPTMAQQIAGNSATSAAAQVGLLLDAGAGLVVVPNVPDISATPMLLEAVITAGLGAAAPPALKAALDALAEGATPDFASRQQAIRKALLAAAATVSSNPFIQQLLVEQLLAGYEAAAGQASALTDYYNQMEEKGLEQHGGNIARADINGLFKEILANPQAFGLTNTVGMACPPGVSASACSSAMPGFNASQDYLFADHLHPGPQVHTIIAQYIQSIIAAPVQATYLNQSVQSMAQGSRTTLDSRYQQLRQGENPVGSLGMFGGYSGGYQRYDNNEADGNGNHNNLTVGVDYQLNEQVLLGGLIAGSLDKQHPDDNYRYDARGFQAAVFSHLRAGQAWLDSDLHFLSAKFSNIQRSITLGALRRVEEGETNGRLWGARLTSGYDFVMVPWLTTGPMLQYAWDYSHVNGYSEKLNTSTSMRFGDQNAHSQVGSAGWRLDLRHSIIHSWAQINYRRQFGDDTYVANGGLKSTALTFSRDGKTQDKNWVDIAIGADFPLSATVSAFAGLSQTAGLSDGNQTRYNVGFSARF | not soluble |
| MTQQGAALQNYNNELVKCIEELCQKREELCRQIQQEEDEKQRLQNEVRQLTEKLARVNENLARKIASRNEFDRTIAETEAAYLKILESSQTLLSVLKREAGNLTKATASDQKSSGGKDS | not soluble |
| MTRGPIFLNVGISYGLPRTKLPAAVSFRKWVAATLQGRIRKADLAIRIVDEKEGRALNYHYRNKDYATNVLSFPAQLPEPLPKALKIPLLGDIVMCAPVIAREAAEQGKSLSAHYAHLTVHGTLHLLGWNHEDHQEADAMEQLEREILANLGISDPYLEEY | soluble |
| MTRNPVVAGMFYPAEYHELLEMIEYCYLNPRGPRELPSKRGKYTKPLGIVSPHAGYIYSGPVAAHGYKKISENISGEITAIILGPNHTGLGSGIATMKGTWKTPFGDMEIDNEFADRLWKECDILDMDENSHLREHSIEVQLPFLKHLEDLNIAKFKFVPISMMMQDYESCIDVGYVIAKVARELNRKIVIIASTDFSHYEPQEQASKKDAVVIKDILELNDEEIFTDVVTHTISMCGYGPVIAMVKAMKDLGARTSYLLYYSTSGDVTKDYSEVVGYASLLIKLEHHHHHH | soluble |
| MTRRCELLVVGAGPAGMAAATQSAALGVDTLLLDEQATPGGQIYRAITTTALTRPDILGPDYWHGASLLEPLRASGAAYLSGATVWAVSRGAEAGDGGAFEVAYSVGGQADILRARHILLATGALERPFPIPGWTLPGVVTAGAAQILLKTAAIVPGEHAVLAGGGPLLYLLAWQYLNAGVRIERLLETTAPGGLARALPHALDFLRSPYLAKGLKLMRAVRAHVPITRGVRDLRAQGRERLESLSYRAGGRTHDMPARHLMLHQGVVPNLNLSRALGVDHQWNPTQACWQPRVDDWGATSVAGIGIAGDGADIGGAIAAEHRGRLAALQAAVALGRIDDARRDREARAPRRALARAMRGRAFFDVLYRPADAYRRPGDDTIVCRCEEITAGQIRATVRLGCSGPNQMKAFLRCGMGPCQGRLCGLTVSELIAHERGVPLPEVGYYRLRFPTKPVTLGELASLPQTEASRQAVVRLKKTALEHHHHHH | not soluble |

Source: the DeepSol protein solubility set
